Data: US20090304715A1 (TOKYO UNIVERSITY OF SCIENCE, published 2009)

T1: CD20 on CD20-positive human Burkitt's lymphoma Ramos cells (human, UniProt P11836 1-297)
T1 construct: whole, on cells; also called B cell-specific differentiation antigen CD20
T1 sequence (looked up): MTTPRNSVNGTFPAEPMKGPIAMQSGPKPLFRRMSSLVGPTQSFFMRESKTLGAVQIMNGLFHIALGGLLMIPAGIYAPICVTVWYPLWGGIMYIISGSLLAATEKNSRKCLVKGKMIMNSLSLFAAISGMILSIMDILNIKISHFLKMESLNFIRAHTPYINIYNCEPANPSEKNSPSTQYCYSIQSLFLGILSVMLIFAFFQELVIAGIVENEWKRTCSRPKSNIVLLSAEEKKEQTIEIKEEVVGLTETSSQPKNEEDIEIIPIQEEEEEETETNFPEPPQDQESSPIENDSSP

T2: recombinant FcγRIIB extracellular domain-Gly-His6-GST (human, UniProt P31994 43-217)
T2 construct: extracellular domain; Expressed in 293T cells, purified on Ni-NTA; also called FcγRIIB/Gly-His6-GST; not shown: GST amplified from pGEX-2TK
T2 sequence: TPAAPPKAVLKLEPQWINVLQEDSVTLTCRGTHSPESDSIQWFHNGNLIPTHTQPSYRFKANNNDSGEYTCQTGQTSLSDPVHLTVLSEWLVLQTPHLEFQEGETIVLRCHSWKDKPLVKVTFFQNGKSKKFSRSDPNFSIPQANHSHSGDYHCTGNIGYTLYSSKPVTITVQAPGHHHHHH

T3: recombinant FcγRIIA extracellular domain-Gly-His6-GST (human, UniProt P12318 34-217)
T3 construct: extracellular domain; Expressed in 293T cells, purified on Ni-NTA; also called FcγRIIA/Gly-His6-GST; not shown: GST amplified from pGEX-2TK
T3 sequence: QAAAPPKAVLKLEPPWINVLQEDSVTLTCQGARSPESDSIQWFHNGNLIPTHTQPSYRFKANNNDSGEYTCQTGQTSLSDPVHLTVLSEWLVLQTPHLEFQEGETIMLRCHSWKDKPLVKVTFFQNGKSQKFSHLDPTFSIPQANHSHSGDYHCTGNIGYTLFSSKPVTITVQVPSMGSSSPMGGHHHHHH


How the values were obtained:
[1] = biological target: T1, CD20 on CD20-positive human Burkitt's …; test: flow cytometry on CD20-positive Ramos cells, antibody 50 nM, FITC anti-human kappa
Description: CD20-positive human Burkitt's lymphoma Ramos cells were cultured using RPMI1640 containing 10% heat-inactivated fetal bovine serum, 1 mM sodium pyruvate (Wako), 100 U/ml penicillin, and 100 μg/ml streptomycin at 37° C. under 5% CO₂. The Ramos cell culture solution was centrifuged at 600 g for five minutes. After the medium was removed, the cells were suspended in an appropriate volume of medium. After another centrifugation at 600 g for five minutes, the medium was removed. 5 ml of FACS buffer (PBS containing 0.1% BSA and 0.02% NaN₃) was added to suspend the cells, and this was left on ice and blocked for 30 minutes. The supernatant was removed after centrifugation at 600 g for five minutes, cells were suspended at 5×10⁶ cells/ml in FACS buffer, and 100 μl were aliquoted per 1.5-ml tube. […] The supernatants were removed, and cells were washed by adding 500 μl of FACS buffer. This process was repeated twice to completely remove the non-reacted antibodies. Cells were suspended in 100 μl of FACS buffer containing 20 μg/ml FITC-labeled goat anti-human Kappa chain antibody (Biosource International), and allowed to stand on ice in the dark for 30 minutes. Cells were washed with the method described above, suspended in 100 μl of FACS buffer, filtered through a mesh with a hole size of 59 μm, and transferred into FACS tubes. The CD20 binding activity of each antibody was analyzed by fluorescence measurement using FACScan (Becton Dickinson) (FIG. 8).

[2] = biological target: T4, recombinant FcγRIA extracellular domain-Gly-His6-GST (human, UniProt P12314 16-292); test: ELISA, plate-coated recombinant FcγRIA extracellular domain-Gly-His6-GST, HRP anti-human kappa
T4 construct: extracellular domain; Residues from the XbaI junction between receptor and tag are not spelled out; also called FcγRIA/Gly-His6-GST; not shown: GST amplified from pGEX-2TK
T4 sequence (P12314 other isoform, or with tags, fused parts or gaps): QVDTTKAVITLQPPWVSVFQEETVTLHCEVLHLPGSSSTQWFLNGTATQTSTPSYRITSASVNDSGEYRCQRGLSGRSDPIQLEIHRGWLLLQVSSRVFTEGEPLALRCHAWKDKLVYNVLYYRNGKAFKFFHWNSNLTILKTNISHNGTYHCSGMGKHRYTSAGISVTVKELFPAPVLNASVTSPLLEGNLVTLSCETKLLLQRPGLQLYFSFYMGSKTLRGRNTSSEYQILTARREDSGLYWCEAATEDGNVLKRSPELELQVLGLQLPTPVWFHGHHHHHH
Description: (§1) The prepared FcγR (FcγRIA, FcγRIIA, FcγRIIB, FcγRIIIA^Val, and FcγRIIIA^Phe) were adjusted to 4 μg/ml with PBS, aliquoted into 96-well plates at 50 μl per well, and allowed to stand at 4° C. overnight. Then the solutions were discarded and 180 μl of ELISA Assay buffer (0.5% BSA, 2 mM EDTA, 0.05% Tween20, 25 mM TBS (pH 7.4)) was added to each well. The plates were allowed to stand and blocked at 37° C. for 2 hours. The solutions were discarded, 50 μl of antibody solutions serially diluted with ELISA Assay buffer were added to each well and allowed to react at 37° C. for two hours. The antibody solutions were discarded and wells were washed three times with 150 μl of ELISA Assay buffer. 50 μl of ELISA Assay buffer containing 0.33 μg/ml HRP-labeled goat anti-human Kappa chain antibody was aliquoted into each well and allowed to stand at 37° C. for one hour. After the antibody solution was removed, wells were washed three times with 150 μl of ELISA Assay buffer. 50 μl of a substrate solution (sodium citrate buffer (pH 5.0) containing 0.4% o-phenylenediamine dihydrochloride and 0.003% H₂O₂) was aliquoted and allowed to stand at room temperature in the dark for ten minutes. Then measurements at A450 were carried out using a microplate reader (FIG. 9).

[3] = biological target: T2, recombinant FcγRIIB extracellular …; test: ELISA, plate-coated recombinant FcγRIIB; Ab50 = antibody concentration at 50% of maximal binding
Description: as §1

[4] = biological target: T5, recombinant FcγRIIIA (Val^158 type) extracellular domain-Gly-His6-GST (human, UniProt P08637 17-208); test: ELISA, plate-coated recombinant FcγRIIIA (Val158); Ab50 = antibody concentration at 50% of maximal binding
T5 construct: extracellular domain; Valine at position 158 (printed once as 157V); The database entry may carry Phe at this position; also called type-V FcγRIIIA; FcγRIIIA(157V); not shown: GST amplified from pGEX-2TK
T5 sequence (P08637 other isoform, or with tags, fused parts or gaps): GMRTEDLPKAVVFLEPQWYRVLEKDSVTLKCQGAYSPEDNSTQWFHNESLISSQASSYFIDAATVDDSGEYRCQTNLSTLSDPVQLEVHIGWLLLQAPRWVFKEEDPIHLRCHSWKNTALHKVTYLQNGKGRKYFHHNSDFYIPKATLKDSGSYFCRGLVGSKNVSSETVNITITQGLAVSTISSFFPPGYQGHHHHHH
Description: as §1

[5] = biological target: T3, recombinant FcγRIIA extracellular …; test: ELISA, plate-coated recombinant FcγRIIA; Ab50 = antibody concentration at 50% of maximal binding; reference M
Description: as §1

Binder | binding result [1] | binding result [2] | EC50 [3] [nM] | EC50 [4] [nM] | fold difference of Ab50 against M [5] [times]
mouse/human chimeric anti-CD20 antibody, Fc monomer (M) (antibody, Variable regions of mouse 1F5, human IgG1/kappa constant regions; Produced in CHO DG44; also called Anti-CD20 HC Fc Monomer) heavy: not shown light: QIVLSQSPAILSASPGEKVTMTCRASSSLSFMHWYQQKPGSSPKPWIYATSNLASGVPARFSGSGSGTSYSLTISRVEAEDAATYFCHQWSSNPLTFGAGTKLLETVAAPSVFIFPPSDEQLKSGTASVVCLLNNFYPREAKVQWKVDNALQSGNSQESVTEQDSKDSTYSLSSTLTLSKADYEKHKVYACEVTHQGLSSPVTKSFNRGEC | binds | binds | ~50 | ~30 | –
modified anti-CD20 antibody, Fc dimer with no spacer (D0) (antibody) heavy: not shown light: QIVLSQSPAILSASPGEKVTMTCRASSSLSFMHWYQQKPGSSPKPWIYATSNLASGVPARFSGSGSGTSYSLTISRVEAEDAATYFCHQWSSNPLTFGAGTKLLETVAAPSVFIFPPSDEQLKSGTASVVCLLNNFYPREAKVQWKVDNALQSGNSQESVTEQDSKDSTYSLSSTLTLSKADYEKHKVYACEVTHQGLSSPVTKSFNRGEC | binds | binds | – | ~2 | –
modified anti-CD20 antibody, Fc dimer with three G4S spacers (D3) (antibody) heavy: not shown light: QIVLSQSPAILSASPGEKVTMTCRASSSLSFMHWYQQKPGSSPKPWIYATSNLASGVPARFSGSGSGTSYSLTISRVEAEDAATYFCHQWSSNPLTFGAGTKLLETVAAPSVFIFPPSDEQLKSGTASVVCLLNNFYPREAKVQWKVDNALQSGNSQESVTEQDSKDSTYSLSSTLTLSKADYEKHKVYACEVTHQGLSSPVTKSFNRGEC | binds | binds | ~5 | ~2 | ~60
modified anti-CD20 antibody, Fc trimer with no spacer (T0) (antibody) heavy: not shown light: QIVLSQSPAILSASPGEKVTMTCRASSSLSFMHWYQQKPGSSPKPWIYATSNLASGVPARFSGSGSGTSYSLTISRVEAEDAATYFCHQWSSNPLTFGAGTKLLETVAAPSVFIFPPSDEQLKSGTASVVCLLNNFYPREAKVQWKVDNALQSGNSQESVTEQDSKDSTYSLSSTLTLSKADYEKHKVYACEVTHQGLSSPVTKSFNRGEC | binds | binds | – | ~2 | ~100
modified anti-CD20 antibody, Fc trimer with one G4S spacer (T1) (antibody) heavy: not shown light: QIVLSQSPAILSASPGEKVTMTCRASSSLSFMHWYQQKPGSSPKPWIYATSNLASGVPARFSGSGSGTSYSLTISRVEAEDAATYFCHQWSSNPLTFGAGTKLLETVAAPSVFIFPPSDEQLKSGTASVVCLLNNFYPREAKVQWKVDNALQSGNSQESVTEQDSKDSTYSLSSTLTLSKADYEKHKVYACEVTHQGLSSPVTKSFNRGEC | – | – | ~0.5 | ~0.5 | ~100
modified anti-CD20 antibody, Fc trimer with two G4S spacers (T2) (antibody) heavy: not shown light: QIVLSQSPAILSASPGEKVTMTCRASSSLSFMHWYQQKPGSSPKPWIYATSNLASGVPARFSGSGSGTSYSLTISRVEAEDAATYFCHQWSSNPLTFGAGTKLLETVAAPSVFIFPPSDEQLKSGTASVVCLLNNFYPREAKVQWKVDNALQSGNSQESVTEQDSKDSTYSLSSTLTLSKADYEKHKVYACEVTHQGLSSPVTKSFNRGEC | – | – | ~0.5 | ~0.5 | ~100
modified anti-CD20 antibody, Fc trimer with three G4S spacers (T3) (antibody) heavy: not shown light: QIVLSQSPAILSASPGEKVTMTCRASSSLSFMHWYQQKPGSSPKPWIYATSNLASGVPARFSGSGSGTSYSLTISRVEAEDAATYFCHQWSSNPLTFGAGTKLLETVAAPSVFIFPPSDEQLKSGTASVVCLLNNFYPREAKVQWKVDNALQSGNSQESVTEQDSKDSTYSLSSTLTLSKADYEKHKVYACEVTHQGLSSPVTKSFNRGEC | – | – | ~0.5 | ~0.5 | ~100
modified anti-CD20 antibody, Fc dimer with one G4S spacer (D1) (antibody) heavy: not shown light: QIVLSQSPAILSASPGEKVTMTCRASSSLSFMHWYQQKPGSSPKPWIYATSNLASGVPARFSGSGSGTSYSLTISRVEAEDAATYFCHQWSSNPLTFGAGTKLLETVAAPSVFIFPPSDEQLKSGTASVVCLLNNFYPREAKVQWKVDNALQSGNSQESVTEQDSKDSTYSLSSTLTLSKADYEKHKVYACEVTHQGLSSPVTKSFNRGEC | – | – | – | ~30 | –
modified anti-CD20 antibody, Fc dimer with two G4S spacers (D2) (antibody) heavy: not shown light: QIVLSQSPAILSASPGEKVTMTCRASSSLSFMHWYQQKPGSSPKPWIYATSNLASGVPARFSGSGSGTSYSLTISRVEAEDAATYFCHQWSSNPLTFGAGTKLLETVAAPSVFIFPPSDEQLKSGTASVVCLLNNFYPREAKVQWKVDNALQSGNSQESVTEQDSKDSTYSLSSTLTLSKADYEKHKVYACEVTHQGLSSPVTKSFNRGEC | – | – | – | ~30 | –
